Test results from US20230227572A1 (HEFEI TG IMMUNOPHARMA, published 2023).

Legend:
[1] = target: T1, recombinant human PVRIG-human IgG1 Fc fusion protein (human); test: SPR (Biacore), human PVRIG-human IgG1 Fc on chip, antibody in flow, 1:1 model
T1 construct: no linker is told; also called human PVRIG-Fc fusion protein
Description: The binding kinetics and dissociation equilibrium constant (KD) of the antibodies of the present disclosure to human PVRIG were determined using the surface plasmon resonance (Biacore) assay. Briefly, a CMS chip was coated with human PVRIG-human IgG1 Fc fusion protein, and after being blocked, antibody solutions of different concentrations passed through the CMS chip at a fixed flow rate and bound to antigen for 2 min, followed by transfer to dissociation buffer for 6 min for determination of the dissociation rate. The kinetics were analyzed using a 1:1 binding model.

[2] = target: T2, human PVRIG protein on the cell membrane surface (human, UniProt Q6DKI7 41-326); test: flow cytometry on 293T-human PVRIG cells, AF647 mouse anti-human IgG-Fc, percent positive cells
T2 construct: Also used here for the natural PVRIG on NKG cells and human lymphocytes; also called 293T-human PVRIG cell line; PVRIG on NKG cell line
T2 sequence: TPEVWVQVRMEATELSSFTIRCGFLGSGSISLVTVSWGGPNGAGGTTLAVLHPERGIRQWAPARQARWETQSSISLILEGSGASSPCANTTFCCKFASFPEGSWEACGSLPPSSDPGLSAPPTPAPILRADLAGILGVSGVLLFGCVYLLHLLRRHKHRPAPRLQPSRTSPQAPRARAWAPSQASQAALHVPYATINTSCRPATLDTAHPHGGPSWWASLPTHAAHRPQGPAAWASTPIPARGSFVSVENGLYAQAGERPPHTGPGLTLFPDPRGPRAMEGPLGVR
Description: The activity of the humanized antibodies in binding to human PVRIG was evaluated by flow cytometry in the experiment.
The 293T-human PVRIG cell line was harvested, and washed and resuspended with 1×PBS to count the cells. Then 2×10^5 cells were placed into each 1.5 ml Ep tube, the respective humanized antibody was added at different concentrations, the mixture was incubated at 4° C. for 30 min, then washed with 1×PBS, and centrifuged at 3,500 rpm for 5 min to harvest the cells. The cell pellet was resuspended in 100 μl of 1×PBS, a AF647-labeled mouse anti-human IgG-Fc antibody (available from Biolegend) was added, the mixture was incubated at 4° C. for 30 min in the dark, followed by washing twice with 1×PBS and harvesting the cells by centrifugation at 3,500 rpm for 5 min. The cell pellet was resuspended with 200 μl of 1×PBS and measured using a flow cytometer (BD LSR II), and the analysis statistical results were shown in FIG. 16. It can be seen that all the humanized antibodies were ablet to specifically bind to the human PVRIG protein on the cell membrane surface.

T1 sequence (chain, as listed by the source limits assumed): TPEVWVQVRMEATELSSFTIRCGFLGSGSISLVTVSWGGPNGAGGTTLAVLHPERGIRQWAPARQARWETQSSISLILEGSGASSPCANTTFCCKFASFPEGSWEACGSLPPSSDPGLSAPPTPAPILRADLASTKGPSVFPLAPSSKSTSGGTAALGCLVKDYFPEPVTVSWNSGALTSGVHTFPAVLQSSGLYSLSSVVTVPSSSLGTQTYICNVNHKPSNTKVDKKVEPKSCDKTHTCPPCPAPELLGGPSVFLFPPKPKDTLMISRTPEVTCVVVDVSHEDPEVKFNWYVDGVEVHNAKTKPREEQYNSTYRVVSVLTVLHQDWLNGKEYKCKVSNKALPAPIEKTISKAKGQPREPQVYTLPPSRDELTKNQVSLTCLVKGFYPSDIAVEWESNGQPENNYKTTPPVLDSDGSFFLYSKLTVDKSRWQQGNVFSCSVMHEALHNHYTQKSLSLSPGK

B1: Antibody 4-hu11 (antibody, human IgG4 S228P, kappa, V domains shown)
VH: EVQLVQSGAEVKKPGSSVKVSCKASGYTFSSFSIEWVRQAPGQGLEWIGEILPGSNSTNYNEKFKGKATFTADTSTNTAYMELSSLRSEDTAVYYCSSYWFAYWGQGTLVTVSS
VL: DIVMTQSPDSLAVSLGERATINCKSSQSLLNSGNQKNYLAWYQQKPGQPPKLLIYGASTRESGVPDRFSGSGSGTDFTLTISSLQAEDVAVYYCQNAHSYPPTFGQGTKLEIKR
notes: Humanized Antibody 4; heavy chain IgG4 with S228P already in the entry
- Kd [1]: ≤ 4.22 pM
- koff [1]: ≤ 1e-06 s⁻¹
- kon [1]: 237000 M⁻¹ s⁻¹
- EC50 (read off the curve) [2]: ~3 ng/mL
